These results are taken from US20090029924.

In data set [1] the target is recombinant H5 precursor (HA0).
Data set [2] has as its target Anthrax Protective Antigen-83 (PA83), P13423.
In data set [3] the target is T1, Pseudomonas exotoxin A (PEx), P11439.
T1 chain: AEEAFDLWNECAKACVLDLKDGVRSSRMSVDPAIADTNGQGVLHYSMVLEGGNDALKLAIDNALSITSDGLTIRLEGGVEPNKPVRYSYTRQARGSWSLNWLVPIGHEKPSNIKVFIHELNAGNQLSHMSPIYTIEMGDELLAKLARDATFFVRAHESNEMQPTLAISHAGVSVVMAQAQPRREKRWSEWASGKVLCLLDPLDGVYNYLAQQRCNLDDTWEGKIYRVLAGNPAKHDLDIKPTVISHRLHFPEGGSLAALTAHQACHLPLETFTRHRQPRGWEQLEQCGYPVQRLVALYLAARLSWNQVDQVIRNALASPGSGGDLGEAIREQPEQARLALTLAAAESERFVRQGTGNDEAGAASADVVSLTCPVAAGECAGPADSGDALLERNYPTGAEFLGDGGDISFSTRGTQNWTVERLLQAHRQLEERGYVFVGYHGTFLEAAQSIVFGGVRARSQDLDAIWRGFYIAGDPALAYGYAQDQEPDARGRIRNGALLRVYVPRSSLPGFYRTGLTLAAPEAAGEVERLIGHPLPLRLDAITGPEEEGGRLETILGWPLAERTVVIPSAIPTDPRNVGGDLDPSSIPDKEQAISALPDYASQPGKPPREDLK

Anthrax Protective Antigen-83 (PA83), P13423, sequence (P13423 whole entry, looked up): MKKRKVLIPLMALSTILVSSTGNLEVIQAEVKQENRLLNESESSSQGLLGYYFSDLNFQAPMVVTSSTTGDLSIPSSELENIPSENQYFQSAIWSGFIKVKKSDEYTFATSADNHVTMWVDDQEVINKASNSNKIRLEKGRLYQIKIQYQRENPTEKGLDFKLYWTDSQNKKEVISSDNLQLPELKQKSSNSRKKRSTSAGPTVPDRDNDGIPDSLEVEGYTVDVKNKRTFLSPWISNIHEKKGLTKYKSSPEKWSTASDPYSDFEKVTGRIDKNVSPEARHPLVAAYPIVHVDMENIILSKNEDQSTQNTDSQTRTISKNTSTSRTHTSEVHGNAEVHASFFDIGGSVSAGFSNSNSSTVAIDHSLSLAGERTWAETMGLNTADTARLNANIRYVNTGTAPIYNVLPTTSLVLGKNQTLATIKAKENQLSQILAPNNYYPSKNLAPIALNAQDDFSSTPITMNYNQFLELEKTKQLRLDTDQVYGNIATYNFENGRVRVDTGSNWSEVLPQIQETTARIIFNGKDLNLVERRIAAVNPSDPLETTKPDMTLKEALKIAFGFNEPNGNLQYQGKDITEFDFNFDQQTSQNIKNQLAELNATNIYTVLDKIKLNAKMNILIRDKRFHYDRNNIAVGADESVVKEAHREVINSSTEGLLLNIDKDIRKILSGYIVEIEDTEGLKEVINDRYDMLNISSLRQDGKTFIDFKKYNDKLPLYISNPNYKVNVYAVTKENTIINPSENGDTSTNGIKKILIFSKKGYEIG

B1: Recombinant human PC7 (protein)
chain: SVHFNDPKYPQQWHLNNRRSPGRDINVTGVWERNVTGRGVTVVVVDDGVEHTIQDIAPNYSPEGSYDLNSNDPDPMPHPDVENGNHHGTRCAGEIAAVPNNSFCAVGVAYGSRIAGIRVLDGPLTDSMEAVAFNKHYQINDIYSCSWGPDDDGKTVDGPHQLGKAALQHGVIAGRQGFGSIFVVASGNGGQHNDNCNYDGYANSIYTVTIGAVDEEGRMPFYAEECASMLAVTFSGGDKMLRSIVTTDWDLQKGTGCTEGHTGTSAAAPLAAGMIALMLQVRPCLTWRDVQHIIVFTATRYEDRRAEWVTNEAGFSHSHQHGFGLLNAWRLVNAAKIWTSVPYLASYVSPVLKENKAIPQSPRSLEVLWNVSRMDLEMSGLKTLEHVAVTVSITHPRRGSLELKLFCPSGMMSLIGAPRSMDSDPNGFNDWTFSTVRCWGERARGTYRLVIRDVGDESFQVGILRQWQLTLYGSVWSAVDIRDRQRLLESAMSGKYLHDDFALPCPPGLKIPEEDGYTITPNTLKT
On to B1, for which the “in vitro cleavage of biotin-labeled substrate (Western blot)” value in data set [1] is “other PCs were less efficient”; in data set [2], “PACE4 and PC7 were less effective”.

B2: Recombinant human PC4 (protein)
chain: SVVVPTDPWFSKQWYMNSEAQPDLSILQAWSQGLSGQGIVVSVLDDGIEKDHPDLWANYDPLASYDFNDYDPDPQPRYTPSKENRHGTRCAGEVAAMANNGFCGVGVAFNARIGGVRMLDGTITDVIEAQSLSLQPQHIHIYSASWGPEDDGRTVDGPGILTREAFRRGVTKGRGGLGTLFIWASGNGGLHYDNCNCDGYTNSIHTLSVGSTTQQGRVPWYSEACASTLTTTYSSGVATDPQIVTTDLHHGCTDQHTGTSASAPLAAGMIALALEANPFLTWRDMQHLVVRASKPAHLQAEDWRTNGVGRQVSHHYGYGLLDAGLLVDTARTWLPTQPQRKCAVRVQSRPTPILPLIYIRENVSACAGLHNSIRSLEHVQAQLTLSYSRRGDLEISLTSPMGTRSTLVAIRPLDVSTEGYNNWVFMSTHFWDENPQGVWTLGLENKGYYFNTGTLYRYTLLLYGTAEDMTARPTGPQVTSSACVQRDTEGLCQACDGPAYILGQLCLAYCPPRFFNHTRLVTAGPGHTAAPALRVCSSCHASCYTCRGGSPRDCTSCPPSSTLDQQQGSCMGPTTPDSRPRLRAAACPHHRCPAS
For B2, the “in vitro cleavage at pH 5.5 (Western blot)” value in data set [3] is listed as “readily processed”. Besides, the “in vitro cleavage of biotin-labeled substrate (Western blot)” value in data set [1] was “other PCs were less efficient”.

B3: Recombinant rat PACE4 (protein)
chain: QARSDSLYFNDPIWSNMWYMHCADKNSRCRSEMNVQAAWKRGYTGKNVVVTILDDGIERNHPDLAPNYDSYASYDVNGNDYDPSPRYDASNENKHGTRCAGEVAASANNSYCIVGIAYNAKIGGIRMLDGDVTDVVEAKSLGIRPNYIDIYSASWGPDDDGKTVDGPGRLAKQAFEYGIKKGRQGLGSIFVWASGNGGREGDHCSCDGYTNSIYTISVSSTTENGHKPWYLEECASTLATTYSSGAFYERKIVTTDLRQRCTDGHTGTSVSAPMVAGIIALALEANNQLTWRDVQHLLVKTSRPAHLKASDWKVNGAGHKVSHLYGFGLVDAEALVLEARKWTAVPSQHMCVATADKRPRSIPVVQVLRTTALTNACADHSDQRVVYLEHVVVRISISHPRRGDLQIHLISPSGTKSQLLAKRLLDFSNEGFTNWEFMTVHCWGEKAEGEWTLEVQDIPSQVRNPEKQGKLKEWSLILYGTAEHPYRTFSSHQSRSRMLELSVPEQEPLKAEGPPPQAETPEEEEEYTGVCHPECGDKGCDGPSADQCLNCVHFSLGNSKTNRKCVSECPLGYFGDTAARRCRRCHKGCETCTGRSPTQCLSCRRGFYHHQETNTCVTLCPAGLYADESQRLCLRCHPSCQKCVDEPEKSTVCKEGFSLARGSCIPDCEPGTYFDSELIRCGECHHTCRTCVGPSREECIHCAKSFHFQDWKCVPACGEGFYPEEMPGLPHKVCRRCDENCLSCEGSSRNCSRCKAGFTQLGTSCITNHTCSNADETFCEMVKSNRLCERKLFIQFCCRTCLLAG
Consider B3, for which the “in vitro cleavage of biotin-labeled substrate (Western blot)” value is “other PCs were less efficient” in data set [1]; “PACE4 and PC7 were less effective” in data set [2].

B4: Recombinant human PC5/6 (protein)
chain: DYDFSRAQSTYFNDPKWPSMWYMHCSDNTHPCQSDMNIEGAWKRGYTGKNIVVTILDDGIERTHPDLMQNYDALASCDVNGNDLDPMPRYDASNENKHGTRCAGEVAAAANNSHCTVGIAFNAKIGGVRMLDGDVTDMVEAKSVSFNPQHVHIYSASWGPDDDGKTVDGPAPLTRQAFENGVRMGRRGLGSVFVWASGNGGRSKDHCSCDGYTNSIYTISISSTAESGKKPWYLEECSSTLATTYSSGESYDKKIITTDLRQRCTDNHTGTSASAPMAAGIIALALEANPFLTWRDVQHVIVRTSRAGHLNANDWKTNAAGFKVSHLYGFGLMDAEAMVMEAEKWTTVPRQHVCVESTDRQIKTIRPNSAVRSIYKASGCSDNPNRHVNYLEHVVVRITITHPRRGDLAIYLTSPSGTRSQLLANRLFDHSMEGFKNWEFMTIHCWGERAAGDWVLEVYDTPSQLRNFKTPGKLKEWSLVLYGTSVQPYSPTNEFPKVERFRYSRVEDPTDDYGTEDYAGPCDPECSEVGCDGPGPDHCNDCLHYYYKLKNNTRICVSSCPPGHYHADKKRCRKCAPNCESCFGSHGDQCMSCKYGYFLNEETNSCVTHCPDGSYQDTKKNLCRKCSENCKTCTEFHNCTECRDGLSLQGSRCSVSCEDGRYFNGQDCQPCHRFCATCAGAGADGCINCTEGYFMEDGRCVQSCSISYYFDHSSENGYKSCKKCDISCLTCNGPGFKNCTSCPSGYLLDLGMCQMGAICKDATEESWAEGGFCMLVKKNNLCQRKVLQQLCCKTCTFQG
With B4, the “in vitro cleavage at pH 5.5 (Western blot)” value in data set [3] is “readily processed”. In addition, the “in vitro cleavage of biotin-labeled substrate (Western blot)” value in data set [1] is “efficiently cleaved”.
